Measured values as given in PMC2132723.

Key:
[1] = target: γ-tubulin (Xenopus egg extract) (Xenopus laevis (endogenous in egg extracts)) (UniProt P23330); experiment: co-IP
[2] = target: pericentrin (Xenopus egg extract) (Xenopus laevis (endogenous in egg extracts)); experiment: quantitative Western blot; conditions: scale: γ-tubulin molecules per pericentrin molecule

percent of pericentrin co-depleted with γ-tubulin [1]	Substance	stoichiometry N [2]
85 to 95%	pericentrin (Xenopus egg extract) (natural protein)	
	γ-tubulin (Xenopus egg extract) (from UniProt P23330 1-451) (natural protein)	30
